Laboratory results taken from the supplement of paper PMC7125110.
± gives the standard error. For some assays here: Fewer inactive variants are shown than the library holds.

B1: glmS ribozyme (parent)
chain: AUAAAAGCGCCAGAACUACAGAAAUGUAGUUGACGAGGAGGAGGUUUAUCGAAUUUUCGGCGGAUGCCUCCAAA

Variants of: B1
Experiment: kcat; higher = faster cleavage; RNA array
Conditions: with glucosamine-6-phosphate
Method in brief: (§1)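 Over ~14 h at 37 °C, tiles were imaged as glucosamine-6-phosphate (40 μM to 10 mM) in HEPES/KCl/Mg(OAc)2 buffer flowed across sequenced MiSeq chips. The chips carried barcoded ribozyme variants transcribed in situ by E. coli RNA polymerase and tracked with a hybridised Cy3 probe. After normalisation to baseline and to non-cleaving reference variants, one- or two-exponential decay fits of per-tile medians gave kobs. kcat and KM followed from weighted Michaelis–Menten fits across concentrations.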

Variant | kcat
AUAAAAGCGCCAGAACUACAGAAAUGUAGUUGACUAGGAGGAGGUUUAUCGAUUUUUCGGCGGAUGCCUCCAAA | < 1e-05 s⁻¹
AUAAAAGCGCCAGAACUACAGAAAUGUAGUUGACGCGGAGGAGGUUUAUCGGAUUUUCGGCGGAUGCCUCCAAA | < 1e-05 s⁻¹
AUAAAAGCGCCAGAACUACAGAAAUGUAGUUGACGCGGAGGAGGUUUAUCGAAUUUUCGGCGGAUGCCCCCAAA | 1.31e-05 ± 3.1e-06 s⁻¹
AUAAAAGCGCCAGAACUACAGAAAUGUAGUUGACGCGGAGGAGGUUUAUGAAAUUUUCGGCGGAUGCCUCCAAA | < 1e-05 s⁻¹
AUAAAAGCGCCAGAACUACAGAAAUGUAGUUGACUACGAGGAGGUUUAUCGAAUUUUCGUCGGAUGCCUCCAAA | < 1e-05 s⁻¹
AUAAAAGCGCCAGAACUACAGAAAUGUAGUUGACGCGGAGGAGGUUUAUCGAAUUUUGGGCGGAUGCCUCCAAA | 2.16e-05 ± 5.9e-06 s⁻¹
AUAAAAGCGCCAGAACUACAGAAAUGUAGUUGACGGGGAGGAGGUUUAUCGAAUUUUCGGCGGAUGCCUGCAAA | 1.29e-05 ± 3e-06 s⁻¹
AUAAAAGCGCCAGAACUACAGAAAUGUAGUUGACUAGGAGGAGGUUUAUCGAAUUUUCGGCGGAUGCCUUCAAA | < 1e-05 s⁻¹
AUAAAAGCGCCAGAACUACAGAAAUGUAGUUGACUAGGAGGAGGUUUAUAGAAUUUUCGGCGGAUGCCUCCAAA | 8.05e-05 ± 9.8e-06 s⁻¹
AUAAAAGCGCCAGAACUACAGAAAUGUAGUUGACGCGGAGGAGGUUUAUCGAAUUUUCGGCGGAUGCGUCCAAA | 7.04e-05 ± 2.3e-05 s⁻¹
AUAAAAGCGCCAGAACUACAGAAAUGUAGUUGACGCGGAGGAGGUUUAUCGAAUUUUCGGCGGAUUCCUCCAAA | < 1e-05 s⁻¹
AUAAAAGCGCCAGAACUACAGAAAUGUAGUUGACGCGGAGGAGGUUUAUCGAAGUUUCGGCGGAUGCCUCCAAA | < 1e-05 s⁻¹
AUAAAAGCGCCAGAACUACAGAAAUGUAGUUGACGCGGAGGAGGUUUAUCGAAAUUUCGGCGGAUGCCUCCAAA | < 1e-05 s⁻¹
AUAAAAGCGCCAGAACUACAGAAAUGUAGUUGACGGGGAGGAGGUUUAUCGAAUUUUCGGCGGAUGACUCCAAA | < 1e-05 s⁻¹
AUAAAAGCGCCAGAACUACAGAAAUGUAGUUGACGCGGAGGAGGUUUAUCGAAUUUUCAGCGGAUGCCUCCAAA | < 1e-05 s⁻¹
AUAAAAGCGCCAGAACUACAGAAAUGUAGUUGACUAAGAGGAGGUUUAUCGAAUUUUCGUCGGAUGCCUCCAAA | < 1e-05 s⁻¹

Variants of: B1
Experiment: self-cleavage kobs at 640 uM GlcN6P; higher = faster cleavage; RNA array
Conditions: with glucosamine-6-phosphate
Method in brief: as §1

Variant | self-cleavage kobs at 640 uM GlcN6P
AUAAAAGCGCCAGAACUACAGAAAUGUAGUUGACUAGGAGGAGGUUUAUCGAUUUUUCGGCGGAUGCCUCCAAA | < 1e-05 s⁻¹
AUAAAAGCGCCAGAACUACAGAAAUGUAGUUGACUACGAGGAGGUUUAUCGAAUUUUCGUCGGAUGCCUCCAAA | < 1e-05 s⁻¹
AUAAAAGCGCCAGAACUACAGAAAUGUAGUUGACUAGGAGGAGGUUUAUCGAAUUUUCGGCGGAUGCCUUCAAA | < 1e-05 s⁻¹
AUAAAAGCGCCAGAACUACAGAAAUGUAGUUGACGCGGAGGAGGUUUAUCGAAUUUUCGGCGGAUGCGUCCAAA | 0.000107 ± 1.7e-05 s⁻¹

Variants of: B1
Experiment: self-cleavage kobs at 2500 uM GlcN6P; higher = faster cleavage; RNA array
Conditions: with glucosamine-6-phosphate
Method in brief: as §1

Variant | self-cleavage kobs at 2500 uM GlcN6P
AUAAAAGCGCCAGAACUACAGAAAUGUAGUUGACGCGGAGGAGGUUUAUCGAAUUUUCGGCGGAUGCCCCCAAA | < 1e-05 s⁻¹
AUAAAAGCGCCAGAACUACAGAAAUGUAGUUGACUAGGAGGAGGUUUAUAGAAUUUUCGGCGGAUGCCUCCAAA | 4.74e-05 ± 9e-06 s⁻¹
AUAAAAGCGCCAGAACUACAGAAAUGUAGUUGACGCGGAGGAGGUUUAUCGAAUUUUCGGCGGAUGCGUCCAAA | 4.55e-05 ± 1.3e-05 s⁻¹
AUAAAAGCGCCAGAACUACAGAAAUGUAGUUGACGCGGAGGAGGUUUAUCGAAGUUUCGGCGGAUGCCUCCAAA | < 1e-05 s⁻¹
AUAAAAGCGCCAGAACUACAGAAAUGUAGUUGACGCGGAGGAGGUUUAUCGAAUUUUCAGCGGAUGCCUCCAAA | < 1e-05 s⁻¹
AUAAAAGCGCCAGAACUACAGAAAUGUAGUUGACUAAGAGGAGGUUUAUCGAAUUUUCGUCGGAUGCCUCCAAA | < 1e-05 s⁻¹

Variants of: B1
Experiment: self-cleavage kobs at 160 uM GlcN6P; higher = faster cleavage; RNA array
Conditions: with glucosamine-6-phosphate
Method in brief: as §1

Variant | self-cleavage kobs at 160 uM GlcN6P
AUAAAAGCGCCAGAACUACAGAAAUGUAGUUGACGCGGAGGAGGUUUAUGAAAUUUUCGGCGGAUGCCUCCAAA | < 1e-05 s⁻¹
AUAAAAGCGCCAGAACUACAGAAAUGUAGUUGACGGGGAGGAGGUUUAUCGAAUUUUCGGCGGAUGCCUGCAAA | < 1e-05 s⁻¹
AUAAAAGCGCCAGAACUACAGAAAUGUAGUUGACUAGGAGGAGGUUUAUCGAAUUUUCGGCGGAUGCCUUCAAA | < 1e-05 s⁻¹
AUAAAAGCGCCAGAACUACAGAAAUGUAGUUGACGCGGAGGAGGUUUAUCGAAAUUUCGGCGGAUGCCUCCAAA | < 1e-05 s⁻¹

Variants of: B1
Experiment: self-cleavage kobs at 40 uM GlcN6P; higher = faster cleavage; RNA array
Conditions: with glucosamine-6-phosphate
Method in brief: as §1

Variant | self-cleavage kobs at 40 uM GlcN6P
AUAAAAGCGCCAGAACUACAGAAAUGUAGUUGACUACGAGGAGGUUUAUCGAAUUUUCGUCGGAUGCCUCCAAA | < 1e-05 s⁻¹
AUAAAAGCGCCAGAACUACAGAAAUGUAGUUGACGCGGAGGAGGUUUAUCGAAUUUUCGGCGGAUGCGUCCAAA | 3.7e-05 ± 1.3e-05 s⁻¹

Variants of: B1
Experiment: self-cleavage kobs at 10000 uM GlcN6P; higher = faster cleavage; RNA array
Conditions: with glucosamine-6-phosphate
Method in brief: as §1

Variant | self-cleavage kobs at 10000 uM GlcN6P
AUAAAAGCGCCAGAACUACAGAAAUGUAGUUGACUAGGAGGAGGUUUAUCGAAUUUUCGGCGGAUGCCUUCAAA | < 1e-05 s⁻¹
AUAAAAGCGCCAGAACUACAGAAAUGUAGUUGACUAGGAGGAGGUUUAUAGAAUUUUCGGCGGAUGCCUCCAAA | 6.59e-05 ± 1.2e-05 s⁻¹
AUAAAAGCGCCAGAACUACAGAAAUGUAGUUGACGCGGAGGAGGUUUAUCGAAUUUUCGGCGGAUGCGUCCAAA | 8.61e-05 ± 3.4e-05 s⁻¹
AUAAAAGCGCCAGAACUACAGAAAUGUAGUUGACGCGGAGGAGGUUUAUCGAAGUUUCGGCGGAUGCCUCCAAA | < 1e-05 s⁻¹
AUAAAAGCGCCAGAACUACAGAAAUGUAGUUGACGCGGAGGAGGUUUAUCGAAUUUUCAGCGGAUGCCUCCAAA | < 1e-05 s⁻¹

Variants of: B1
Experiment: KM; higher = weaker cofactor use; RNA array
Conditions: with glucosamine-6-phosphate
Method in brief: as §1

Variant | KM
AUAAAAGCGCCAGAACUACAGAAAUGUAGUUGACUAGGAGGAGGUUUAUAGAAUUUUCGGCGGAUGCCUCCAAA | 1970 ± 740 µM
